Source: US12281147

What was measured:
[1] = biological target: human IL-21R (human) (UniProt Q9HBE5); experiment: AlphaSeq yeast mating assay, pH 7 media
[2] = biological target: human IL-21R (human) (UniProt Q9HBE5); experiment: AlphaSeq yeast mating assay, pH 5 media
[3] = biological target: human IL-21R (human) (UniProt Q9HBE5); experiment: AlphaSeq yeast mating assay, pH 6 media
[4] = biological target: human IL-21R (human) (UniProt Q9HBE5); experiment: AlphaSeq yeast mating assay, unbuffered media

IL-21_L120V (from UniProt Q9HBE4 32-152) (ligand)
Kd [1]: 0.21 µM
Kd [2]: 1.2 µM
Kd [3]: 0.21 µM

IL-21_E93T (from UniProt Q9HBE4 32-152) (ligand)
Kd [2]: 0.046 µM
Kd [4]: 2.4 µM

IL-21_L42K (from UniProt Q9HBE4 32-152) (ligand)
Kd [1]: 12 µM
Kd [4]: 250 µM

IL-21_R34P (from UniProt Q9HBE4 32-152) (ligand)
Kd [2]: 1.4 µM
Kd [4]: 2.7 µM

IL-21_Y52N (from UniProt Q9HBE4 32-152) (ligand)
Kd [1]: 0.24 µM
Kd [4]: 110 µM

IL-21_R34V (from UniProt Q9HBE4 32-152) (ligand)
Kd [1]: 0.11 µM
Kd [2]: 0.14 µM
Kd [3]: 0.027 µM

IL-21_S142I (from UniProt Q9HBE4 32-152) (ligand)
Kd [1]: 0.041 µM
Kd [4]: 2.6 µM

IL-21_M39I (from UniProt Q9HBE4 32-152) (ligand)
Kd [1]: 0.035 µM
Kd [4]: 2.5 µM

IL-21_R38Q (from UniProt Q9HBE4 32-152) (ligand)
Kd [4]: 270 µM
Kd [3]: 12 µM

IL-21_K106N (from UniProt Q9HBE4 32-152) (ligand)
Kd [2]: 10 µM
Kd [4]: 1 µM
Kd [3]: 0.55 µM

IL-21_P108D (from UniProt Q9HBE4 32-152) (ligand)
Kd [1]: 0.24 µM
Kd [4]: 1.4 µM

IL-21_I37G (from UniProt Q9HBE4 32-152) (ligand)
Kd [2]: 82 µM
Kd [4]: 170 µM

IL-21_M39K (from UniProt Q9HBE4 32-152) (ligand)
Kd [4]: 890 µM

IL-21_L56T (from UniProt Q9HBE4 32-152) (ligand)
Kd [4]: 100 µM
Kd [3]: 6.9 µM

IL-21_R38E (from UniProt Q9HBE4 32-152) (ligand)
Kd [4]: 110 µM
Kd [3]: 8.4 µM

IL-21_M39D (from UniProt Q9HBE4 32-152) (ligand)
Kd [4]: 800 µM
Kd [3]: 76 µM

IL-21_F79D (from UniProt Q9HBE4 32-152) (ligand)
Kd [2]: 52 µM
Kd [4]: 170 µM
Kd [3]: 2.7 µM

IL-21_L49R (from UniProt Q9HBE4 32-152) (ligand)
Kd [4]: 160 µM

IL-21_I37E (from UniProt Q9HBE4 32-152) (ligand)
Kd [2]: 1.5 µM
Kd [4]: 110 µM
Kd [3]: 0.55 µM

IL-21_M39E (from UniProt Q9HBE4 32-152) (ligand)
Kd [2]: 150 µM
Kd [4]: 330 µM

IL-21_V57L (from UniProt Q9HBE4 32-152) (ligand)
Kd [1]: 0.088 µM
Kd [4]: 2.7 µM

IL-21_Y52K (from UniProt Q9HBE4 32-152) (ligand)
Kd [4]: 340 µM
Kd [3]: 2.8 µM

IL-21_E59R (from UniProt Q9HBE4 32-152) (ligand)
Kd [1]: 0.34 µM
Kd [2]: 41 µM
Kd [3]: 1.5 µM

IL-21_F79T (from UniProt Q9HBE4 32-152) (ligand)
Kd [1]: 1.4 µM
Kd [2]: 92 µM
Kd [3]: 3.3 µM

IL-21_M39R (from UniProt Q9HBE4 32-152) (ligand)
Kd [4]: 340 µM
Kd [3]: 170 µM

IL-21_A75N (from UniProt Q9HBE4 32-152) (ligand)
Kd [4]: 780 µM
Kd [3]: 28 µM

IL-21_D44T (from UniProt Q9HBE4 32-152) (ligand)
Kd [1]: 0.16 µM
Kd [2]: 0.35 µM
Kd [3]: 0.044 µM

IL-21_P108E (from UniProt Q9HBE4 32-152) (ligand)
Kd [1]: 0.55 µM
Kd [4]: 2.8 µM

IL-21_F79R (from UniProt Q9HBE4 32-152) (ligand)
Kd [1]: 4.5 µM
Kd [2]: 65 µM
Kd [3]: 4.4 µM

IL-21_R38K (from UniProt Q9HBE4 32-152) (ligand)
Kd [1]: 7 µM
Kd [4]: 250 µM

IL-21_I45S (from UniProt Q9HBE4 32-152) (ligand)
Kd [1]: 0.16 µM
Kd [2]: 15 µM
Kd [3]: 0.11 µM

IL-21_D66R (from UniProt Q9HBE4 32-152) (ligand)
Kd [2]: 0.025 µM
Kd [4]: 2.7 µM

IL-21_R105K (from UniProt Q9HBE4 32-152) (ligand)
Kd [4]: 250 µM

IL-21_M39P (from UniProt Q9HBE4 32-152) (ligand)
Kd [4]: 260 µM

IL-21_N51V (from UniProt Q9HBE4 32-152) (ligand)
Kd [4]: 2.5 µM
Kd [3]: 0.062 µM

IL-21_D47P (from UniProt Q9HBE4 32-152) (ligand)
Kd [4]: 530 µM
Kd [3]: 27 µM

IL-21_I37N (from UniProt Q9HBE4 32-152) (ligand)
Kd [1]: 0.33 µM
Kd [2]: 33 µM

IL-21_V53N (from UniProt Q9HBE4 32-152) (ligand)
Kd [1]: 0.99 µM
Kd [4]: 560 µM

IL-21_P108T (from UniProt Q9HBE4 32-152) (ligand)
Kd [1]: 1.1 µM
Kd [2]: 57 µM

IL-21_Q80D (from UniProt Q9HBE4 32-152) (ligand)
Kd [2]: 580 µM
Kd [4]: 660 µM

IL-21_L120M (from UniProt Q9HBE4 32-152) (ligand)
Kd [1]: 0.056 µM
Kd [2]: 0.052 µM
Kd [3]: 0.036 µM

IL-21_V53P (from UniProt Q9HBE4 32-152) (ligand)
Kd [2]: 270 µM
Kd [4]: 270 µM
Kd [3]: 27 µM

IL-21_L42Y (from UniProt Q9HBE4 32-152) (ligand)
Kd [1]: 0.021 µM
Kd [2]: 0.043 µM
Kd [3]: 0.011 µM

IL-21_L103E (from UniProt Q9HBE4 32-152) (ligand)
Kd [2]: 240 µM
Kd [4]: 590 µM
Kd [3]: 92 µM

IL-21_D44P (from UniProt Q9HBE4 32-152) (ligand)
Kd [4]: 590 µM
Kd [3]: 7.3 µM

IL-21_L56E (from UniProt Q9HBE4 32-152) (ligand)
Kd [4]: 110 µM
Kd [3]: 30 µM

IL-21_V53A (from UniProt Q9HBE4 32-152) (ligand)
Kd [1]: 0.056 µM
Kd [4]: 1.1 µM

IL-21_D66M (from UniProt Q9HBE4 32-152) (ligand)
Kd [1]: 0.026 µM
Kd [2]: 0.055 µM

IL-21_L56N (from UniProt Q9HBE4 32-152) (ligand)
Kd [1]: 9.7 µM
Kd [2]: 72 µM

IL-21_Q150S (from UniProt Q9HBE4 32-152) (ligand)
Kd [1]: 0.12 µM
Kd [2]: 0.043 µM

IL-21_L49E (from UniProt Q9HBE4 32-152) (ligand)
Kd [2]: 600 µM
Kd [4]: 540 µM

IL-21_F76H (from UniProt Q9HBE4 32-152) (ligand)
Kd [1]: 9.2 µM
Kd [2]: 79 µM
Kd [3]: 14 µM

IL-21_I96A (from UniProt Q9HBE4 32-152) (ligand)
Kd [4]: 160 µM
Kd [3]: 11 µM

IL-21_V46D (from UniProt Q9HBE4 32-152) (ligand)
Kd [4]: 270 µM
Kd [3]: 12 µM

IL-21_N51G (from UniProt Q9HBE4 32-152) (ligand)
Kd [1]: 0.044 µM
Kd [2]: 0.11 µM

IL-21_D47S (from UniProt Q9HBE4 32-152) (ligand)
Kd [4]: 330 µM
Kd [3]: 4.6 µM

IL-21_F76E (from UniProt Q9HBE4 32-152) (ligand)
Kd [2]: 100 µM
Kd [4]: 270 µM
Kd [3]: 6.9 µM

IL-21_S74H (from UniProt Q9HBE4 32-152) (ligand)
Kd [2]: 0.17 µM
Kd [4]: 85 µM
Kd [3]: 0.026 µM

IL-21_I148S (from UniProt Q9HBE4 32-152) (ligand)
Kd [4]: 170 µM

IL-21_I43L (from UniProt Q9HBE4 32-152) (ligand)
Kd [2]: 0.058 µM
Kd [4]: 1.5 µM
Kd [3]: 0.02 µM

IL-21_Q41K (from UniProt Q9HBE4 32-152) (ligand)
Kd [1]: 7.2 µM
Kd [2]: 150 µM

IL-21_R34F (from UniProt Q9HBE4 32-152) (ligand)
Kd [1]: 0.11 µM
Kd [2]: 0.39 µM
Kd [3]: 0.052 µM

IL-21_F76T (from UniProt Q9HBE4 32-152) (ligand)
Kd [2]: 75 µM
Kd [4]: 340 µM

IL-21_I95H (from UniProt Q9HBE4 32-152) (ligand)
Kd [2]: 53 µM
Kd [4]: 150 µM
Kd [3]: 2 µM

IL-21_V57M (from UniProt Q9HBE4 32-152) (ligand)
Kd [1]: 0.025 µM
Kd [2]: 0.057 µM
